How the values were obtained:
[1] = molecular target: wild-type Tetrahymena thermophila MacNup98A (Mac98A) FG domain (Tetrahymena thermophila); assay: partition of fluorescent probes into FG particles (confocal laser scanning microscopy); FG particles mixed with permeation probes (2 μM Alexa488-labelled NTF2 and 10 μM mCherry in assay buffer, 15 μl + 15 μl); 20 mM NaPi pH 6.8, 150 mM NaCl, 5 mM DTT; 21 °C; partition coefficient = signal inside FG phase: signal in buffer
prf.GLFG_(52 × 12) = molecular target: T1, prf.GLFG_(52 × 12); assay: partition of Atto488-coupled FG domains into FG particles (confocal laser scanning microscopy); 20 μM unlabelled prf.GLFG_(52 × 12) premixed with 0.5 μM Atto488-labelled species (GAFG: 3 μM); 20 mM NaPi pH 6.8, 150 mM NaCl, 5 mM DTT; 21 °C; apparent partition coefficient = Atto488 signal IN: OUT of the FG particles; conditions: both partners purified
T1 construct: engineered from the Tetrahymena thermophila MacNup98A FG domain; plasmid pSNG064; Isotope-labelled (15N, 13C) for NMR; also called perfect repeat; source: E. coli, inclusion bodies, Ni(II) chelate column, tag cut off with bdSENP1 protease, lyophilized; not shown: His14-ZZ-scSUMO, N-terminal, cleaved
T1 chain: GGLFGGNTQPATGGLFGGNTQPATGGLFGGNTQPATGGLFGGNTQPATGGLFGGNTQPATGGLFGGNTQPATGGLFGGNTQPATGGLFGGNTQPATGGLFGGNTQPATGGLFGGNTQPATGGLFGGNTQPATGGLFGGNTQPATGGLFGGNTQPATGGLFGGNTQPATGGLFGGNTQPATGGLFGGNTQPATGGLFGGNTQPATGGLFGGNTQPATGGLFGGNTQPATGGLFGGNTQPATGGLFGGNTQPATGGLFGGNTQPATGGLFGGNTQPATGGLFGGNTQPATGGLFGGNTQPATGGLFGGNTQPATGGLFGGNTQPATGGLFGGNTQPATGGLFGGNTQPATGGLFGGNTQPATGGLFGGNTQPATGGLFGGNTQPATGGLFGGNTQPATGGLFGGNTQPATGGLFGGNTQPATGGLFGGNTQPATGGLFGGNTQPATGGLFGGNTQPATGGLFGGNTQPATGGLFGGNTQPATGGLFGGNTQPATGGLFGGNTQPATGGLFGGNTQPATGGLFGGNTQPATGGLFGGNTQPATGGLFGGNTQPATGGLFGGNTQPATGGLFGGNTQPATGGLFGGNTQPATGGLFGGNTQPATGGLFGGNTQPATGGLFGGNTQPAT

[2] = molecular target: the molecule itself; assay: MAS NMR, 1H-13C cross-polarization of the FG phase; FG phase from u-[13C,15N]-labelled protein, 36 °C, 20 kHz MAS; cross-polarization against direct excitation

Q: “nuclear transport receptor NTF2 (labelled with Alexa Fluor 488) (from UniProt P61970 1-127) (natural protein)” was tested. Which partition coefficient [1] did it give?
A: The partition coefficient was 2000.

B1: Atto488-coupled GLLG//L_(52 × 12) (other)
chain: GSGLLGNTGLAPAGGLLGNTQLQQGGGLLGQPQLTQGGGLLGQTGLTTGGGLLGGATLTAPGGLLGGGGLNPTGGLLGGNNLQQTGGLLGQGTLQTGGGLLGAPQLNQGGGLLGGGTLTTGGGLLGANTLTGGGGLLGGPSLPTTAGLLGSNNLTTGGGLLGQPALTNNGGLLGGQTLNQASGLLGANNLPPTNGLLGNNNLPQTAGLLGGATLTGNTGLLGGANLTGGGGLLGNNTLNPTGGLLGATNLAGGGGLLGGGALTGGGGLLGGGNLQTGGGLLGTANLTTAGGLLGGGNLQPQNGLLGNNNLPATGGLLGQTNLAAPQGLLGGTNLNAASGLLGQKPLSANGVLTKPNEKNLCYAISNGTDFCIFELALTQRKLVKAGQLKPGAQAGGLLGQPALNTQGGLLGGGGLATTPGLLGGAQLNTTGGLLGGQNLQAGGGLLGAPNLAAATGLLGAGNLNTQGGLLGAKPLATGGGLLGQPALTQAGGLLGNTALPAGGGLLGGATLTPGGGLLGGNTLATGGGLLGGNTLGATGGLLGGQQLNNQGGLLGNTNLNTGGGLLGGATLTTGGGLLGGSTLATGGGLLGGASLPAAGGLLGGAALQQNSGLLGGATLGQTGGLLGGATLQQGGGLLGQTALNPGGGLLGAANLTTQPGLLGGNNLAATTSC
modifications: Atto488 (coupled)
Q: How did the partition coefficient (prf.GLFG_(52 × 12)) turn out when B1 was run?
A: Its partition coefficient is 110.

B2: Pro-free prf.GLFG_(52 × 12) (other)
chain: GGLFGGATNSQTGGLFGGATNSQTGGLFGGATNSQTGGLFGGATNSQTGGLFGGATNSQTGGLFGGATNSQTGGLFGGATNSQTGGLFGGATNSQTGGLFGGATNSQTGGLFGGATNSQTGGLFGGATNSQTGGLFGGATNSQTGGLFGGATNSQTGGLFGGATNSQTGGLFGGATNSQTGGLFGGATNSQTGGLFGGATNSQTGGLFGGATNSQTGGLFGGATNSQTGGLFGGATNSQTGGLFGGATNSQTGGLFGGATNSQTGGLFGGATNSQTGGLFGGATNSQTGGLFGGATNSQTGGLFGGATNSQTGGLFGGATNSQTGGLFGGATNSQTGGLFGGATNSQTGGLFGGATNSQTGGLFGGATNSQTGGLFGGATNSQTGGLFGGATNSQTGGLFGGATNSQTGGLFGGATNSQTGGLFGGATNSQTGGLFGGATNSQTGGLFGGATNSQTGGLFGGATNSQTGGLFGGATNSQTGGLFGGATNSQTGGLFGGATNSQTGGLFGGATNSQTGGLFGGATNSQTGGLFGGATNSQTGGLFGGATNSQTGGLFGGATNSQTGGLFGGATNSQTGGLFGGATNSQTGGLFGGATNSQTGGLFGGATNSQTGGLFGGATNSQT
notes: also called thioflavin-T-positive, proline-free variant of prf.GLFG_(52 × 12)
Q: Does B2 bind [2]?
A: Result: binds

— publication PMC8938434, “Atomic resolution dynamics of cohesive interactions in phase-separated Nup98 FG domains” (Nature Communications, 2022)
